The results in this text go back to US20090208538A1.

Sequences and labels used below:
B1: cdr2 24-32 … (peptide)
peptide: LQQDLQLAA
B2: cdr2 213-221 … (peptide)
peptide: RQKRVTMEE
B3: cdr2 235-243 … (peptide)
peptide: QQLGATGAY
B4: cdr2 72-80 … (peptide)
peptide: LLRQMNEQH
B5: cdr2 156-164 … (peptide)
peptide: PSFACLKEL
B6: cdr2 165-173 … (peptide)
peptide: YDLRQHFVY
B7: cdr2 257-265 … (peptide)
peptide: MRQMLQSEH
B8: cdr2 260-268 … (peptide)
peptide: MLQSEHPFV
modifications: not checked

The first test addresses HLA-A*1501 (human). Description: iTopia affinity.
B1 returned an ED50 of 42 µM.

B2 showed an ED50 of 110 µM.

Molecule B3 gave an ED50 of 8.6 µM.

B4 returned an ED50 of 68 µM.

Consider B5, for which the ED50 amounted to 45 µM.

With B6, the ED50 was 45 µM.

On to B7, for which the ED50 was 170 µM.

In the next test the target is HLA-A*0201 (human). Description: iTopia affinity.
As to B8, the ED50 amounted to 2 µM.

Another test concerns the target HLA-A*0201 (human). Put plainly: iTopia net score.
B8 yielded an iScore of 0.584.

A further test concerns the target HLA-A*1501 (human). Put plainly: iTopia net score.
For the molecule B1, the iScore worked out at 0.09.

Molecule B2 registered an iScore of 0.065.

As for B3, the iScore was 0.255.

B4 displayed an iScore of 0.106.

In the case of B5, the iScore came out at 0.072.

On to B6, for which the iScore turned out to be 0.098.

B7 gave an iScore of 0.075.

The next test concerns the target HLA-A*0201 (human). Description: iTopia binding.
For B8, the binding vs positive control is > 30%.
